Data from US20250320279A1, “UNGULATE-DERIVED POLYCLONAL IMMUNOGLOBULIN SPECIFIC FOR INFLUENZA VIRUS AND USES THEREOF” (priority 2021, published 2025).

How the values were obtained:
Assay in all cases: cell-based or functional assay
[1] = target: hemagglutinin (HA) of influenza A/Brisbane/02/2018 H1N1 (Influenza A virus A/Brisbane/02/2018 (H1N1))
[2] = target: hemagglutinin (HA) of influenza A/California/4/2009 pH1N1 (Influenza A virus A/California/4/2009 (pH1N1))
[3] = target: hemagglutinin (HA) of influenza A/Cambodia/e0826360/2020 (2021-22) H3N2 (Influenza A virus A/Cambodia/e0826360/2020 (H3N2))
[4] = target: hemagglutinin (HA) of influenza A/Guangdong-maonan/2019 (Cell) H1N1 (Influenza A virus A/Guangdong-maonan/2019 (H1N1), (Cell))
[5] = target: hemagglutinin (HA) of influenza A/Guangdong-maonan/2019 (Egg) H1N1 (Influenza A virus A/Guangdong-maonan/2019 (H1N1), (Egg))
[6] = target: hemagglutinin (HA) of influenza A/Hong Kong/2671/2019 (Egg) H3N2 (Influenza A virus A/Hong Kong/2671/2019 (H3N2), (Egg))
[7] = target: hemagglutinin (HA) of influenza A/Kansas/14/2017 H3N2 (Influenza A virus A/Kansas/14/2017 (H3N2))
[8] = target: hemagglutinin (HA) of influenza A/Michigan/45/2015 pH1N1 (Influenza A virus A/Michigan/45/2015 (pH1N1))
[9] = target: hemagglutinin (HA) of influenza A/Singapore/INFIMH-16-0019/2016 H3N2 (Influenza A virus A/Singapore/INFIMH-16-0019/2016 (H3N2))
[10] = target: hemagglutinin (HA) of influenza A/Victoria/2570/2019 (2021-22) H1N1 (Influenza A virus A/Victoria/2570/2019 (H1N1))
[11] = target: hemagglutinin (HA) of influenza B/California/12/2015 B-Yam (Influenza B virus B/California/12/2015)
[12] = target: hemagglutinin (HA) of influenza B/Colorado/06/2017 B-Vic (Influenza B virus B/Colorado/06/2017 (B-Vic))
[13] = target: hemagglutinin (HA) of influenza B/Maryland/15/2016 B-Vic (Influenza B virus B/Maryland/15/2016 (B-Vic))
[14] = target: hemagglutinin (HA) of influenza B/Phuket/3073/2013 B-Yam (Influenza B virus B/Phuket/3073/2013 (B-Yam))
[15] = target: hemagglutinin (HA) of influenza B/Washington/02/2019 B-Vic (Influenza B virus B/Washington/02/2019)
[16] = target: hemagglutinin (HA) of influenza A/Hong Kong/4801/2014 H3N2 (Influenza A virus A/Hong Kong/4801/2014 (H3N2))
[17] = target: hemagglutinin (HA) of influenza A/Switzerland/9715293/2013 H3N2 (Influenza A virus A/Switzerland/9715293/2013 (H3N2))
[18] = target: hemagglutinin (HA) of influenza B/Brisbane/60/2008 B-Vic (Influenza B virus B/Brisbane/60/2008 (B-Vic))

| Substance | HAI titer (reciprocal dilution) [1] | HAI titer (Huber virus stock) (reciprocal dilution) [2] | HAI titer (hVIVO virus stock) (reciprocal dilution) [2] | HAI titer (reciprocal dilution) [3] | HAI titer (reciprocal dilution) [4] | HAI titer (reciprocal dilution) [5] | HAI titer (reciprocal dilution) [6] | HAI titer (reciprocal dilution) [7] | HAI titer (reciprocal dilution) [8] | HAI titer (reciprocal dilution) [9] | HAI titer (reciprocal dilution) [10] | HAI titer (reciprocal dilution) [11] | HAI titer (reciprocal dilution) [12] | HAI titer (reciprocal dilution) [13] | HAI titer (reciprocal dilution) [14] | HAI titer (reciprocal dilution) [15] | HAI titer (reciprocal dilution) [2] | HAI titer (reciprocal dilution) [16] | HAI titer (reciprocal dilution) [17] | HAI titer (reciprocal dilution) [18] |
| --- | --- | --- | --- | --- | --- | --- | --- | --- | --- | --- | --- | --- | --- | --- | --- | --- | --- | --- | --- | --- |
| SAB-176 Lot 2 V3-V5 (antibody) | 512 | 512 | 1024 | 256 | 512 | 512 | 128 | 64 | 512 | 512 | 256 | 128 | 256 | 256 | 256 | 128 |  |  |  |  |
| SAB-176 Lot 4 V3-V12 (antibody) | 512 | 512 | 512 | 256 | 512 | 512 | 256 | 256 | 512 | 512 | 256 | 128 | 256 | 256 | 128 | 128 |  |  |  |  |
| SAB-176 Lot 1 V3 (antibody) | 512 | 512 | 512 | 128 | 512 | 512 | 64 | 64 | 512 | 512 | 256 | 128 | 256 | 256 | 128 | 64 |  |  |  |  |
| negative control IgG (antibody) | < 1 | < 1 | < 1 | < 1 | < 1 | < 1 | < 1 | < 1 | < 1 | < 1 | < 1 | < 1 | < 1 | < 1 | < 1 | < 1 | < 1 | < 1 | < 1 | < 1 |
| SAB-176 Lot 3 V3-V12 (antibody) | 512 | 512 | 512 | 256 | 512 | 512 | 256 | 512 | 512 | 512 | 256 | 128 | 256 | 128 | 128 | 64 |  |  |  |  |
